Test: soluble fraction after stress (log2 fold change); higher = more stays soluble; pooled small domains, quantitative proteomics
Conditions: stress: 50 degC
In short: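 Pooled custom libraries of small protein domains were each held under stress at 50°C. The read-out, high-throughput quantitative proteomics, tracked how much of each protein stayed soluble. This is reported as a base-two log fold change used to indicate aggregation propensity. Higher values mean more protein remains in solution.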

Sequence | soluble fraction (log2)
HMISDAEWTIMKALWQSEDKKMTLKEIAEAVADSGWSYTTVRTMVGRLVEKEAIEADESHPRNFRYSAA | -1.23
HMGDYDHYVVKVEDTLLNWLVTNVTTMSRNKLKDILAGQGIKVNGKITTKYDYPLTPGMKIAISKTKR | -0.275
HMKSEIRKKNSQIILDAAEHEFSVHGYRGTSVQMIADRSGLPKANLHYYYKSKSALYGAVLDRIL | 0.202
HMKSKYLIKIEGDFDEKDLYKYLINVSIVNHTKNNGFTEVEFYNDNYSLQQNFLKSMLNDGIIITEFKKVE | -0.115
HMNVVSIEHIRTHLQNHLSLIGRSIEESFNEAKVIAFVASLFLTHRGYASVSQDMGTNGEIYLQDLW | -0.381
HMQHQSGLKSGEFEAISQQLQALLKENPLSLQEIKDKMQVTENHLIKVVSYLVSEEIIRQENGYLK | -0.729
HMSQITEADYIPNTDKTWGELMEETGESLPNLVERYNNEMTKSNGKEQPQSIIQRIIEDYQMVS | 0.0384
HMNAISIDEAKKIALAKVSGASDQHIRIEADHDDGRLVYEGEIHYGRVEYEFEIDGSTGAIIEWDADRK | -0.341
HMSETEWGEIYRKVMAAGLIPARSVRERLLALPSIEPLLQAAEAAGSKGMLDETLLDSLLSKT | 0.134
HMSDPVDDLLLRISQQAGVARGQLVAELNMLVQDRFGGNLRHEAAAVLMAKRYGIEFRDLLPALREHLVKN | -0.00206
HMGVDMGPAKYVGQKALTATEMRPAGKIQIGQTVFDAVSVGPFIGARKAVKVIKYENAQLYVEPE | 0.00597
HMDMSDFEVVRDMYLTGKVWNAGDIVEAKGITGEVVRKGTNYLSFVDKNGKVHKAWLHEIEL | -0.188
HMDINLGIGPLVKKYRTIKGYSIRELARNINVTASMLSQIERDIVNPSINTLKAISVELGVPMYKFFM | -2.33
HMSMLGTEQRVLVLGPARKGEGFLMARTDNNRIVNFEGPLSLVDTMVRVKVTDVYPHSLGGQLL | -1.55
HMLQLKEPLKKVYERLTPVPKTAETILAELWEKGEYLDIAALHRALMELELSGYVRQSSPGYFGTSA | -0.096
HMIVNTTRAPYLLGETEQDAMRLARQAGLVPEIVRQSSAEPAGTVILQSHDFDYRMRRGSVILITVSTGPL | -2.15
HMSLRGEKTYDEAHQKLIKSAVELFKNPLVSPEKITVSQIAKHAGVSVATAYNHFPENKLDIYGSIF | -0.071
HMNLYHALDQQGEVYLTIPPRQSGRGKVTLMIDGRVREMDAMTDGDALKTGSKVRVTEILDENALKVEAM | 0.207
HMQQISDPQVLRPMAEEVLHQSQKVVQDYKGGNKNAFHALVGQMMKKTQGKGNPQVIGQVLSELLDE | 0.476
HMDAMLSEQLREKRGELLIEVDAIAGNALRWATLSAEQQDAWAVYRQALLDVPQQAGFPNDVVWPINPN | -0.352
HMRKIVEGVLTKKEGKWYLLTDIETYKISDASAEYHKAELNDRASALIPAQNPKVPFASLEKVFN | -0.219
HMTIYPFNPNYLKDYQAYRVGLSLKEIDALLDFRSSGQWINSAEDFQRITGVSDSVLEQLIPYFKFS | -2.49
HMIKEGDLVFIWNPKKGDSFLIKVQPGQSQGTHFGQIKHSEIMEHNYGEGIRTPKGQVYYLLRPTLGEFTR | -1.14
HMRPDSFEAGEAEAGSRLDRLLAARLGIPRNQVQQWIGGGRVTVDAEPVRASLVVRAGMRIAWDPPPPP | -0.0768
HMGTYYTEIIAQLKKEIANGTWKLGERLPGELALAKQFNVSRSSIREALKALAYAGIVESKPGRGTFLLHV | -0.875

Sequence | soluble fraction (log2)
HMPLPFSPVMFVGTKSGAQTDLDGNYKIETYYSSDSLKVVVLGYAPLAKKVKQGTTSVVNFELSAAS | 0.113
HMDTNPKVIITMDGVNVRSSASTGSDILFIAEKGEEYELISESGDFYKILYEGNKEGYVASWLVETSE | 0.0987
HMSYPFSEDALKEKIREYLKHNRSINRKVLEAEFHIRKQTALNWLKKLEKSGFLIKEGSRNAPVYFLAE | -0.832
HMLDGFEVGMTVMKKSGTEIGFTGWPSFADKDELPIIERIDTSDSTLLLKFKDMSWWIKASLVEPS | -1.62
HMGSEYPSNPLASRWAKGVRLYHDEWGYGVIQAARGSEPDDYVITVRFESGAEKSFLPKFQAHSLMIVKD | -0.161
HMNPLHYKAAHWVREGLFDDLKSFVELETRINSIFEEKDRGDVFEIFIEGYRSFSKWRALVLRLA | -0.28
HMQDNDLKNQIENVLRTYPDNVFTVEKIADVLRSHGSAAFKLIVQELASLERDKVAVVTEDGKFQLNPD | 0.125
HMGKFMVQVGAFSRINGAEITRTKYDNLGTHKAIIKNLDGMNRVFLTGFLSEDEARDFIASSNLKGAFIIR | -1.66
HMHPDALTEREREVLSLLADGLSNREIAARLVLALGTVKWYISVIYSKLGVTRRTQAIARARELHLV | -0.0971
HMETYPINVETTGTNVLLRTGPSTSSNIIKTITDKGTVFLSIERGINSDWQKVVTPDGTIGYMSGKY | 0.000612
HMSLTMPKLIGMHLFQAERTLNYYGFQYKVEGPDSASVVIDQYPKEGVTVDPHYPITLKIGPSA | -0.158
HMSLNHDIWVQELKEKRSGYGISQSRLAIAAGMTRQYLSDIETGKVLPSAERKAAITEALERFNPD | -0.368
HMLSAGETYTLGYLKASDGILFTAADGSEQTVMQRVQVRLYDNGDGTYTARLADDIAYSAVVTEDMIDK | -0.116
HMTILTSSQRKALISKMIRQGGVESQSHLVKLLAREGVKVTQATASRDLEDLGATRVRDANGEFQYVIP | -0.271
HMTLPQEPTVLPRPLRVGDTVHIRTLDKDAEVLALPDARGMVAVRAGIINTKVKLTDLTLVEEK | 0.179
HMGYVQLTAREKEVLQGLVDGASYKMIAAKLDIRFGTVHTHVKNIYEKLHVNSASEAVVKAIRQRL | -2.46
HMQDLTAQQQAILSFLKEHPKATRKEISENIPNITEDNIRYNLSQLQELGFVKSMGDSFIRIAI | 0.0658
HMVGQIISNARKQEKMTQSELAEKVGTNKTYISRIEKGVIEPGVGLFFRIIDALGLKIEIVKP | -1.25
HMGQKASEVEKIFVELQQQIIRGDLPPGYRLVESQIAAQFGVSRTPARLAIERLATAGLVAHETNRGATVH | -0.42
HMQDLAKRWVEEFGDLLYKYTLPRVSDSGIAKDLVQETFLAAWRNIDNFKGEASEKNWLFTILKNKIIDH | -0.213
HMRMRPNERQKRIIELLSFRRHETIGNFANEFGVSRDTIKRDIITLQEEYPIISERGYEGGISLPDGYYI | -0.263
HMAAEELTVDKILTAQSFGVTAEAILAKVNDPANTVATLTQADVDRLRAAGVPEGVVTALQARAPQ | 0.0975
HMTRQNTAVQQSDMAHHKASELTEGMSIVHSHFGRGTIISIETADDPRVTVDFSSEGRKTMLLRFAKFAIE | -0.118
HMHPEQTLEKIVDISAELFAKKGYEQTSIQDILDATGLSKGGLYHHFKSKEEILEAVMQKRVQY | 0.0883
HMKYWTISDLYSKLEEDQVELGAFSEDSNKVTVLDRQGYEHVIKILSSDVPALTELFRKKKVRFAVAG | -0.132

Sequence | soluble fraction (log2)
HMPVSLHEQIQQARIRAEQNVEGISLLLQVNPKYYEQIEAGDVIPDQDLLKRISSLFGWNYHEMLHREKSS | -0.239
HMGSEEMLGALGVVERATDDGDWWIAVHGEHWRARSAQALVPGDRVRVARIDGLTLTVTPIA | -0.0957
HMSDDAVVRMRVPEDALGLSLRETDFRQRFGVYVLAIETRDGKLLAPPDPQRPLGKDDVLVVIQKR | -0.138
HMQVDENNINKRIDKYLSENTEYSRSTIQKMIDNGNITVNSKPTKSSYKLELNDIITIDNNFKE | 0.369
HMDMDRRALLLALINDRYHASVAEFARAINKAPAQVHQWLSGNRALGNAGARDIEIRLNLAQGYFDH | -1.91
HMGEVYPSDIVEKMKQANLHILEGTLYPLLTRLKNAGLLNYRWVESVTGPPRKYFVMTEEGKAAF | 0.0419
HMEDVDLFTKAMAALPNRYRDILLLRYSHGYTVEEISDILSMKPENVKKTIQRARKKLGEILEAEG | -0.654
HMAAGVESLTEKEFAVASLVGGGASNREIAERLAMSERTVKSHLSSIFRKMDVRDRVQLALAMND | 0.00815
HMAEVALFVNGSDVNLRSGPGQESTRVIGSLNLGDEVRIKSQNGQWREVYVPKTRQVGWVAHWLLSEAPP | 0.192
HMKASTRELLDFVLSQRGVSTASVAKALGISVQNASTRLKKLSNEGLIIRSEASSLTGGIEFLYS | -0.799
HMDEKLAHKLVSDFRQAAASLERFPFRNPVLRSEVFTVEKYRKLVFDKYHILLYQVKDQVVYVEYVIDGRQ | -0.75
HMTKVMVPNVVGMSRGEAEEALRGVKLQVDLKREVSDDPEVKPEEVLRQTPDAQTSVPQGSVVTLYVADKP | 0.355
HMENAEALLKKLSGVLSDYEYKMLMLYADGKTPRRIAQETGQSAKSVSNALFRARTKLKELYEDQ | -0.331
HMRKEPSYASDIITRLKEADLIVVEGTLYPLLTRLKKDGLLSYEWRESTQGPPRKYYALTLDGET | -0.455
HMLSVRQRMGELLERLADGQFHRFESLFTVEEGKLGVVVTFLGLLTLAKEQLLDIVQEGPTAPIYVKSLA | -0.437
HMKNEQESIAQKLYEAALKNDFVTIQEIQSGGYRLRNDDLTHMRESGVQSNTLIAIQKIFGL | 0.398
HMKSLHSEVTDRIRQLIVESHLQPGQRVPELEISRDLGVSRTPIREALKVLAAEGLVELLPLRGAMVK | 0.0612
HMDPEARRRAILNAAIDVIVEKGAAALTHRAVAARAGVSLGSTTKYFSSIEDLRENAMDALVREMD | -0.273
HMSELIDSLTEAVRSAPDAVPLRLHLAELLLADGQRDRAFAQLGQVLAKDPQNARALEMLGVGS | -0.0386
HMTARYQQVEDYIVRRIQDGSWPPGHRLPSEHELVQQFGMSRMTVNRALRDLMQKGRIVRVAGVGSFVAQD | -1.41
HMESAQLIINVAGKVSNPGVYQLPQGSRVVDAIEAAGKQLKGVDISDINLARVLVDGEQILVGGV | 0.247
HMKQDYYSILGVMRDASQEEIKRAYLDAAQRLHPDRNTSAGDTEMFLDVQQAYEVLSNPKRRAQYDATLP | 0.148
HMLPDLLNGRVIPSPEKVIRARLNRGVWELLVQWVGRAPSDATWENLLEFKSAYPSVQLEDALF | -1.45
HMRADYVGGLDPAGDNFLALRTGPGSGYAMILPMGPGTFVTVLRRNGKWLLVELEDGTRGWAYGSYILG | -2.84
HMGTQIKSPMPGTILDVRVNVGDTVKEGDILMILEAMKMENEILAPVSGKVAAIQVSKGTAVNSGDLLAVL | 0.224
